Data as given in patent US20250034239A1 (LINNO PHARMACEUTICALS, published 2025).
Values belong to the binder of their own block, whether it stands above or below them.

Experiments:
[1] = molecular target: T1, human properdin (human, UniProt P27918 28-469, biotinylated); assay: ELISA on biotinylated truncated variants of human properdin, VHH-Fc at 10 µg/ml
T1 construct: Recombinant, made in house; tag not described; In the hemolysis assays the target is the properdin of human serum; also called human properdin-biotin; biotin human Properdin
Description: 96-well immunoplates were coated with 100 μl/well 1 μg/ml streptavidin and incubate at 4° C. overnight. Wells were washed with PBST for 3 times and blocked with 200 μl of 1% BSA/PBS at RT for 1 h. […] Plates were washed with PBST for 3 times, 100 μl/well 10 μg/ml VHH-Fcs were added and incubate at RT for 1 h. Plates were washed with PBST for 3 times and add 100 μl goat anti-human Fc-HRP (Sigma, A0170) diluted 1/5000 in 1% BSA/PBST to each well and incubate at RT for 1 h. Plates were then washed as before and add 100 μl TMB substrate and incubate at RT for 15 min. 100 μl per well stop solution was added to stop the reaction, and the plates were read with microplate reader at 450 nm.

[2] = molecular target: T2, human transferrin receptor 1 on HEK293F-hTfR1 cells (human, UniProt P02786 1-760); assay: flow cytometry on HEK293F-hTfR1 cells with or without transferrin
T2 construct: whole, on cells
Description: (§1) HEK293F-hTfR1 cells were prepared by transfecting hTfR1-expressing plasmid, with a GFP tag, into HEK293F cells. Stable pool was used for this assay. Briefly, the engineered HEK293F cells expressing hTfR1 were cultured with OPM-293 CD05 medium at 37° C., with 8% CO₂ and saturated humidity in cell shaker. […] The cells were washed twice by centrifugation at 300 g for 5 min at 4° C., before rabbit anti-OVA antibodies and a secondary anti-rabbit IgG-AF647 (all prepared in blocking buffer). The cells were scanned with CytoFLEX (Beckman).

[3] = molecular target: T3, human transferrin (Sigma T3309) (human, UniProt P02787 20-698); assay: flow cytometry on HEK293F-hTfR1 cells with human transferrin, pH 6.0
T3 construct: mature; same polypeptide; also called native human transferrin; hTf
Description: as §1

[4] = molecular target: T3, human transferrin (Sigma T3309); assay: flow cytometry on HEK293F-hTfR1 cells with human transferrin, pH 7.4
Description: as §1

[5] = molecular target: T3, human transferrin (Sigma T3309); assay: flow cytometry on HEK293F-hTfR1 cells with human transferrin, pH 6.0; grade by % binding (10% > + ≥ 5%); non-specific binding column also +
Description: as §1

[6] = molecular target: T3, human transferrin (Sigma T3309); assay: flow cytometry on HEK293F-hTfR1 cells with human transferrin, pH 7.4; grade by % binding (10% > + ≥ 5%)
Description: as §1

[7] = molecular target: T3, human transferrin (Sigma T3309); assay: flow cytometry on HEK293F-hTfR1 cells with human transferrin, pH 7.4; grade by % binding (+++ ≥ 15%)
Description: as §1

T3 sequence (P02787 20-698): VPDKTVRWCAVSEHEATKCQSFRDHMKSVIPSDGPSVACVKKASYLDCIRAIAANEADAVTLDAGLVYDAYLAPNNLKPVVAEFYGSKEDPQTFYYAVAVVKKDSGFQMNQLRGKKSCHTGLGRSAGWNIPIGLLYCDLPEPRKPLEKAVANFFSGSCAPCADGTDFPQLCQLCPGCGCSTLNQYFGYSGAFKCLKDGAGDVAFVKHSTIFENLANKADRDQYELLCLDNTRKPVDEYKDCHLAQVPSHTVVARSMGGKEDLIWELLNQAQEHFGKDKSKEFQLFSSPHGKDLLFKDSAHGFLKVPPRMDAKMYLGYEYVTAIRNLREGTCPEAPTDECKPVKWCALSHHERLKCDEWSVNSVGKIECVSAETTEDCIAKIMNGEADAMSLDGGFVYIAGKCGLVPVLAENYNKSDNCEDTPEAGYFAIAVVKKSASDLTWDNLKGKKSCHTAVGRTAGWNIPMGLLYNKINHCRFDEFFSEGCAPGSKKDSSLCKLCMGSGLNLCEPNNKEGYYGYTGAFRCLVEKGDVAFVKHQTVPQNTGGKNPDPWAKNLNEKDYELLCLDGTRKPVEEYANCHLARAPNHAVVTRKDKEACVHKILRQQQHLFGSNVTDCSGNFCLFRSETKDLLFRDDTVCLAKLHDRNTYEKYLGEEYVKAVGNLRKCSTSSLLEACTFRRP
T1 sequence (P27918 28-469 limits assumed): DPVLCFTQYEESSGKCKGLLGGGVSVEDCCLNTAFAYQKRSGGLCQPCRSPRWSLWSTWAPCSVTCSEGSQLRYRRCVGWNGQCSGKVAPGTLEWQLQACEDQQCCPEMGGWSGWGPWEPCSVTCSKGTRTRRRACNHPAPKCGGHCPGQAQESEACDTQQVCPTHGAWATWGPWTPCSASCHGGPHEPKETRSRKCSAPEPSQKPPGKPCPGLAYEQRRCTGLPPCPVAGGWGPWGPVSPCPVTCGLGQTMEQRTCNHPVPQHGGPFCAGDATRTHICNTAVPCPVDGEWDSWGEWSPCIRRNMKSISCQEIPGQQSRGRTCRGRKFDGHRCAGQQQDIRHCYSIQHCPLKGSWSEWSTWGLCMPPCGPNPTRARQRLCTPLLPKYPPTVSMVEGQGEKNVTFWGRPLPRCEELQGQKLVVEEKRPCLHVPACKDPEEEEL
T2 sequence (P02786 whole entry): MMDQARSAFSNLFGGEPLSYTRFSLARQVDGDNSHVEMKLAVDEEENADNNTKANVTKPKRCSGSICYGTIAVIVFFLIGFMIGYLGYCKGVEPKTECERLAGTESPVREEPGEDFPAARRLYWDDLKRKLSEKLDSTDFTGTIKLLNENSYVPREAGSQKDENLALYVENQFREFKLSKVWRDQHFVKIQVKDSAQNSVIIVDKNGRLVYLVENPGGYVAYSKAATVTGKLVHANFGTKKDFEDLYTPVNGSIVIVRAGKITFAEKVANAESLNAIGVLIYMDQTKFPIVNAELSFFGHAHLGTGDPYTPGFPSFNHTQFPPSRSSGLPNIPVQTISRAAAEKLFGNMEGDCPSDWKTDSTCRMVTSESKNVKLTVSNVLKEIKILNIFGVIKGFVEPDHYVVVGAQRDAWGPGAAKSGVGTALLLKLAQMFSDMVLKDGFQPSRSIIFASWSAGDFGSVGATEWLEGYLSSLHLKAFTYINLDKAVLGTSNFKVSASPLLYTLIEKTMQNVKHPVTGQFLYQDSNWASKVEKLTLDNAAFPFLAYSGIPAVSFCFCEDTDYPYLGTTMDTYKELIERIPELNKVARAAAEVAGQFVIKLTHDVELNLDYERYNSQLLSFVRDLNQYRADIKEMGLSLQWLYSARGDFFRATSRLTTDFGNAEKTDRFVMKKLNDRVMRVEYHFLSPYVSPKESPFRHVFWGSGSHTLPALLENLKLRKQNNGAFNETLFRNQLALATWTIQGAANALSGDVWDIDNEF

binding result [1]: binds
B1: SLN12075 VHH-Fc (Fc fusion)
VHH: EVQLVESGGGLVQPGGSLRLSCAASAYIYSSYCMGWFRQAPGKGLERVSVINSDGRTSYADSVKGRFTISRDNSKNTLYLQMNSLRAEDTAVYYCAAVILPPTDGMEYSCNYPAAEYNYWGQGTLVTVSS
notes: not shown: its position and linker are not fixed for the humanized single VHH

binding result [1]: binds
B2: SLN12068 VHH-Fc (Fc fusion)
VHH: EVQLVESGGGLVQPGGSLRLSCAAFEYYYCMGWFRQAPGKGLEGVASFDTSDGSKYYADSVKGRFTISKDNSKNTLYLQMNSLRAEDTAVYYCAARPFYVGGTCLPRLTDFSIWGQGTLVTVSS
notes: as for B1

binding result [2]: no binding (tested: 10 µg/mL)
percent binding (flow cytometry, VHH/Tf on hTfR1-overexpressing cells, pH 6.0) [3]: < 5%
B3: SLN0043 VHH-OVA-His (VHH)
chain: DVQLVESGGGSVQAGGSLRLSCAASGVTWSRDWMAWFRQAPGKEREGVAAFVPSIGSTFYVDSVKGRFTISQDNAKNTLFLQMNSLKPEDTAMYYCATDPLWGRKYGGSWSDPSEYNYWGQGTQVTVSSGSIGAASMEFCFDVFKELKVHHANENIFYCPIAIMSALAMVYLGAKDSTRTQINKVVRFDKLPGFGDSIEAQCGTSVNVHSSLRDILNQITKPNDVYSFSLASRLYAEERYPILPEYLQCVKELYRGGLEPINFQTAADQARELINSWVESQTNGIIRNVLQPSSVDSQTAMVLVNAIVFKGLWEKAFKDEDTQAMPFRVTEQESKPVQMMYQIGLFRVASMASEKMKILELPFASGTMSMLVLLPDEVSGLEQLESIINFEKLTEWTSSNVMEERKIKVYLPRMKMEEKYNLTSVLMAMGITDVFSSSANLSGISSAESLKISQAVHAAHAEINEAGREVVGSAEAGVDAASVSEEFRADHPFLFCIKHIATNAVLFFGRCVSP
notes: Tested as recombinant VHH-OVA-His; not shown: His tag

percent binding (flow cytometry, VHH/Tf on hTfR1-overexpressing cells, pH 7.4) [4]: < 5%
percent binding (flow cytometry, VHH/Tf on hTfR1-overexpressing cells, pH 6.0) [5]: 5 to 10%
B4: SLN0059 VHH-OVA-His (VHH)
chain: HVQLVESGGGSVQSGGSLRLSCAASGITISNYYMTWFRQAPGKEREGVAGLTRADVTLYADSVKGRFTISRDNAKNTLYLQMNSLKPEDTAMYYCAAADRFRVGLREADFSAWGQGTQVTVSSGSIGAASMEFCFDVFKELKVHHANENIFYCPIAIMSALAMVYLGAKDSTRTQINKVVRFDKLPGFGDSIEAQCGTSVNVHSSLRDILNQITKPNDVYSFSLASRLYAEERYPILPEYLQCVKELYRGGLEPINFQTAADQARELINSWVESQTNGIIRNVLQPSSVDSQTAMVLVNAIVFKGLWEKAFKDEDTQAMPFRVTEQESKPVQMMYQIGLFRVASMASEKMKILELPFASGTMSMLVLLPDEVSGLEQLESIINFEKLTEWTSSNVMEERKIKVYLPRMKMEEKYNLTSVLMAMGITDVFSSSANLSGISSAESLKISQAVHAAHAEINEAGREVVGSAEAGVDAASVSEEFRADHPFLFCIKHIATNAVLFFGRCVSP
notes: as for B3

percent binding (flow cytometry, VHH/Tf on hTfR1-overexpressing cells, pH 7.4) [6]: 5 to 10%
percent binding (flow cytometry, VHH/Tf on hTfR1-overexpressing cells, pH 6.0) [5]: 5 to 10%
B5: SLN0062 VHH-OVA-His (VHH)
chain: QVQLVESGGGSVQSGGSLRLSCAASGYTFSRNCMGWFRQTPGKERERVATVYPGGGSTYYADSVKGRFTFSQDNAKNAIYLQMNTLKPEDTGMYYCAASRRIWSCGSGAGSYDYWGQGTQVTVSSGSIGAASMEFCFDVFKELKVHHANENIFYCPIAIMSALAMVYLGAKDSTRTQINKVVRFDKLPGFGDSIEAQCGTSVNVHSSLRDILNQITKPNDVYSFSLASRLYAEERYPILPEYLQCVKELYRGGLEPINFQTAADQARELINSWVESQTNGIIRNVLQPSSVDSQTAMVLVNAIVFKGLWEKAFKDEDTQAMPFRVTEQESKPVQMMYQIGLFRVASMASEKMKILELPFASGTMSMLVLLPDEVSGLEQLESIINFEKLTEWTSSNVMEERKIKVYLPRMKMEEKYNLTSVLMAMGITDVFSSSANLSGISSAESLKISQAVHAAHAEINEAGREVVGSAEAGVDAASVSEEFRADHPFLFCIKHIATNAVLFFGRCVSP
notes: as for B3

binding result [1]: binds
B6: SLN12083 VHH-Fc (Fc fusion)
VHH: EVQLVESGGGLVQPGGSLRLSCAASEYTSSSYCMAWIRQAPGKGLEGVAAIDTDGSTSYTDSVKGRFTISRDNSKNTLYLQMNSLRAEDTAVYYCAAAPWLLAYGDYCVTRPDFGEWGQGTLVTVSS
notes: as for B1

binding result [2]: no binding (tested: 10 µg/mL)
percent binding (flow cytometry, VHH/Tf on hTfR1-overexpressing cells, pH 6.0) [3]: < 5%
percent binding (flow cytometry, VHH/Tf on hTfR1-overexpressing cells, pH 7.4) [7]: ≥ 15%
B7: SLN0042 VHH-OVA-His (VHH)
chain: DVQLVESGGGSVQAGGSLRLSCAASGYTRSFTCMGWFRQAPGKEREGVATINPGTGSTYYADSVKGRFSISQDNAKNTVYLQMNTLKPEDTAMYYCAATQLFGCGSLAKSLFGYWGQGTLVTVSSGSIGAASMEFCFDVFKELKVHHANENIFYCPIAIMSALAMVYLGAKDSTRTQINKVVRFDKLPGFGDSIEAQCGTSVNVHSSLRDILNQITKPNDVYSFSLASRLYAEERYPILPEYLQCVKELYRGGLEPINFQTAADQARELINSWVESQTNGIIRNVLQPSSVDSQTAMVLVNAIVFKGLWEKAFKDEDTQAMPFRVTEQESKPVQMMYQIGLFRVASMASEKMKILELPFASGTMSMLVLLPDEVSGLEQLESIINFEKLTEWTSSNVMEERKIKVYLPRMKMEEKYNLTSVLMAMGITDVFSSSANLSGISSAESLKISQAVHAAHAEINEAGREVVGSAEAGVDAASVSEEFRADHPFLFCIKHIATNAVLFFGRCVSP
notes: as for B3

percent binding (flow cytometry, VHH/Tf on hTfR1-overexpressing cells, pH 7.4) [6]: 5 to 10%
percent binding (flow cytometry, VHH/Tf on hTfR1-overexpressing cells, pH 6.0) [5]: 5 to 10%
B8: SLN0064 VHH-OVA-His (VHH)
chain: HVQLVESGGGSVQAGGSLRLSCAASGYSVSWFCMGWFRQAPGLEREGVAVIDVDSIARYGDSVKGRFTISQGNSKDTVYLQMNGLKPEDTAMYYCAAKTERQCRWNWMDWRTYDYPHWGQGTQVTVSSGSIGAASMEFCFDVFKELKVHHANENIFYCPIAIMSALAMVYLGAKDSTRTQINKVVRFDKLPGFGDSIEAQCGTSVNVHSSLRDILNQITKPNDVYSFSLASRLYAEERYPILPEYLQCVKELYRGGLEPINFQTAADQARELINSWVESQTNGIIRNVLQPSSVDSQTAMVLVNAIVFKGLWEKAFKDEDTQAMPFRVTEQESKPVQMMYQIGLFRVASMASEKMKILELPFASGTMSMLVLLPDEVSGLEQLESIINFEKLTEWTSSNVMEERKIKVYLPRMKMEEKYNLTSVLMAMGITDVFSSSANLSGISSAESLKISQAVHAAHAEINEAGREVVGSAEAGVDAASVSEEFRADHPFLFCIKHIATNAVLFFGRCVSP
notes: as for B3

percent binding (flow cytometry, VHH/Tf on hTfR1-overexpressing cells, pH 7.4) [4]: < 5%
percent binding (flow cytometry, VHH/Tf on hTfR1-overexpressing cells, pH 6.0) [5]: 5 to 10%
B9: SLN0057 VHH-OVA-His (VHH)
chain: HVQLVESGGGSVQAGGSLRLSCAASGHTYSIYYMAWFRQAPGKEREGVAVIYRGGSTTYADSAKGRFTVSQDNGKNTVYLQMNSLKAEDTAMYYCAAAHVLHVSSLLPGGYPYWGQGTLVTVSSGSIGAASMEFCFDVFKELKVHHANENIFYCPIAIMSALAMVYLGAKDSTRTQINKVVRFDKLPGFGDSIEAQCGTSVNVHSSLRDILNQITKPNDVYSFSLASRLYAEERYPILPEYLQCVKELYRGGLEPINFQTAADQARELINSWVESQTNGIIRNVLQPSSVDSQTAMVLVNAIVFKGLWEKAFKDEDTQAMPFRVTEQESKPVQMMYQIGLFRVASMASEKMKILELPFASGTMSMLVLLPDEVSGLEQLESIINFEKLTEWTSSNVMEERKIKVYLPRMKMEEKYNLTSVLMAMGITDVFSSSANLSGISSAESLKISQAVHAAHAEINEAGREVVGSAEAGVDAASVSEEFRADHPFLFCIKHIATNAVLFFGRCVSP
notes: as for B3
